Values quoted from earlier work in paper PMC8645602.
Where two headings read alike, the source gives them in different places.

Tests used:
[1] = biological target: Tyr9 (UniProt position 9, KPKLHYFNARG)
[2] = biological target: Tyr9 (UniProt position 9, KPKLHYFNGRG); conditions: not stated (the article does not say whether the enzyme was free or glutathione-bound)

Substance	pKa ([1]; free enzyme (no glutathione))	pKa ([1]; glutathione bound)	pKa [2]
Glutathione transferase A1-1 (HsaGST A1-1) (Homo sapiens)	8.1	9.2	
Glutathione transferase A3-3 (HsaGST A3-3) (Homo sapiens)			7.9
